Measurements: patent US9289506B2, “Surface binding of nanoparticle based drug delivery to tissue” (Massachusetts Institute of Technology, priority 2013, dated 2016)

Experiments:
[1] = Dose dependent biological response to Avidin in bovine cartilage explants (viability, sGAG loss, biosynthesis); format: cell-based
Experimental: Briefly, cylindrical cartilage disks (3 mm) were cored using a dermal punch and then sliced to obtain the top 1 mm of cartilage with intact superficial zone. Cartilage disks for all treatment groups were matched for depth and location along the joint surface. They were equilibrated in serum free medium (low glucose Dulbecco's Modified Eagle's Medium [DMEM; 1 g/L]) supplemented with 10 mM HEPES buffer, 0.1 mM nonessential amino acids, 0.4 mM proline, […] ascorbic acis, 100 units/ml penicillin G, 100 µg/ml streptomycin and […] amphotericin B (all from Sigma Aldrich, MO) for 48 h in a 5% CO2 incubator at 37° C. prior to any treatment. […] The medium was changed every 2 days without replenishing Avidin. This simulated the in-vivo condition of one time Avidin injection. The experiment was conducted for three time periods: 2, 4 and 10 days. Upon termination of culture at these time points, 100-200 μm thick slices were cut from the center of disks from each treatment condition. The slices were immediately stained for 2-3 minutes in the dark with fluorescein diacetate (FDA; 4 mg/ml in PBS) and propidium iodide (PI; 40 mg/ml in PBS) (both from Sigma Aldrich, MO). FDA was used to stain the viable cells green, while PI stained the non-viable cells red. The slices were washed with PBS and then imaged using Nikon fluorescence microscope with a 4× objective. Two days before the termination of culture of day 4 and day 10 experiments, the medium was supplemented with 5 μCi/mL [^35S]-sulfate and 10 μCi/mL [^3H]-proline (both from PerkinElmer, Norwalk, Conn.). […] The wet weight was measured for each disk and then digested with proteinase K (Roche, Indianapolis, Minn.) overnight. The cumulative sGAG content in the medium and digested explants was measured using the DMMB assay. The amount of radiolabel in each digested sample and medium standards (^35S and ^3H) were measured using a liquid scintillation counter. Radiolabeled concentration was calculated from the standards and then normalized to the wet weight.

[2] = Net charge of Avidin estimated using Donnan equilibrium; format: physicochemical; conditions: assuming uptake entirely due to Donnan partitioning, no binding
Source text: However, it is not certain whether the effective charge sensed during transport and uptake would include all these residues, or whether certain residues may be internal and less accessible to charge-charge interactions within the cartilage extracellular matrix. In addition, the unknown extent of Avidin glycosylation may contribute additional net negative charge that would decrease the total net charge. However, this estimate assumes that all such residues are ionized in aqueous solution and that none of these residues are internal (buried) and thereby inaccessible to charge-charge interactions within the cartilage matrix. Furthermore, this estimate neglects the effects of Avidin glycosylation which could add additional negative charge groups to the total sum. […]
[formula] (Byun et al., Arch Biochem Biophys, 2010) was measured to be, −0.13 M. Rearranging Eq. (12) gives: […]
Donnan theory (Grodzinsky et al., New York: Garland Science, 2011) is based on the assumptions that (1) all freely moving charged species (i.e., Avidin and bath ions) will partition into a charged tissue according to Boltzmann statistics and, (2) the net charge in the tissue is zero by electroneutrality (i.e., the sum of the tissue fixed charge density and mobile carrier concentrations). By fitting the Donnan theory to the equilibrium uptake data of FIG. 12A, the effective net charge of Avidin was calculated to be +6.2. […]

In the case of “Avidin: positively charged globular glycosylated tetrameric protein, pI 10.5, 66 kDa, diameter ~7 nm (Invitrogen); SEQ ID NO 1”, the “cumulative sGAG loss to medium vs untreated control” value ([1]; 100 nM and 1 μM, 4 and 10 days) is reported as “no significant difference”, the “cumulative sGAG loss to medium” value ([1]; 100 μM, 4 days) is reported as 14.6% and the “cumulative sGAG loss to medium” value ([1]; 100 μM, 10 days) is reported as 20%. For the same substance, the “increase in sGAG loss compared to untreated control” value ([1]; 100 μM, both 4 and 10 days) was “about 2 folds”, the “rate of protein and sGAG synthesis” value ([1]; increasing dose 0-100 μM, last 48 h of culture) was “no significant changes” and the “chondrocyte viability (live-dead fluorescence)” value ([1]; one time dose 0-100 μM, 2, 4 and 10 days) was “no significant difference in cell viability”. For the same substance, the safe dose ([1]; one time dose, bovine cartilage explants) was “at least 1 μM” and the “upper estimate of effective net charge” value [2] was “+13 to +14”.
